# Test results as given in publication PMC6748948, “A Bone Morphogenetic Protein (BMP)-derived Peptide Based on the Type I Receptor-binding Site Modifies Cell-type Dependent BMP Signalling” (Scientific Reports, 2019).
# Target: Peptide P3* (BMP9-based peptide from the ALK1-binding site, biotinylated at the N-terminus) (UniProt Q9UK05)
# Experiment: SPR; Biacore T200; biotinylated P3* immobilised on streptavidin (SA) chip; ALK1-Fc flowed over, injection 4 min, otherwise as for the CM5 assays; steady-state fit
# ALK1-Fc (activin receptor like kinase 1, Fc fusion), sequence (P37023 22-118): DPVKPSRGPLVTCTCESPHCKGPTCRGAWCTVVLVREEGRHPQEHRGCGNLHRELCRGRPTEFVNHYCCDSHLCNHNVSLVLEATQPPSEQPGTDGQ
# Peptide P3* (BMP9-based peptide from the ALK1-binding site, biotinylated at the N-terminus), sequence (Q9UK05 320-429): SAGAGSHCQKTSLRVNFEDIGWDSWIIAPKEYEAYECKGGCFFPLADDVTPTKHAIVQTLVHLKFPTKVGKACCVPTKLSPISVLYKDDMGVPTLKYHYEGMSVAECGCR
substance,measurement,value
"ALK1-Fc (activin receptor like kinase 1, Fc fusion) (from UniProt P37023 22-118)",Kd,30 mM
